The values that follow come from patent US20140234336A1.

The target of this assay is HA of H3N2 influenza virus Wyomin/3/03.rg (influenza A virus H3N2 Wyomin/3/03.rg). Nature of the assay: cell-based or functional assay.

With CT149 antibody, the MN titer turned out to be 5 µg/mL.
